# Reference: US20260193334A1 (ZOETIS SERVICES, published 2026)
# Changes are numbered by the printed parent chain. Names may count otherwise.
# B1: caninized anti-IL31 antibody 34D03, canine IgGB (65), wild-type (antibody)
# heavy: EVQLVESGGDLVKPGGSLRLSCVASGFTFSNYGMSWVRQAPGKGLQWVATISYGGSYTYYPDNIKGRFTISRDNAKNTLYLQMNSLRAEDTAMYYCVRGYGYDTMDYWGQGTLVTVSSASTTAPSVFPLAPSCGSTSGSTVALACLVSGYFPEPVTVSWNSGSLTSGVHTFPSVLQSSGLYSLSSMVTVPSSRWPSETFTCNVAHPASKTKVDKPVPKRENGRVPRPPDCPKCPAPEMLGGPSVFIFPPKPKDTLLIARTPEVTCVVVDLDPEDPEVQISWFVDGKQMQTAKTQPREEQFNGTYRVVSVLPIGHQDWLKGKQFTCKVNNKALPSPIERTISKARGQAHQPSVYVLPPSREELSKNTVSLTCLIKDFFPPDIDVEWQSNGQQEPESKYRTTPPQLDEDGSYFLYSKLSVDKSRWQRGDTFICAVMHEALHNHYTQESLSHSPGK
# VL: EIVMTQSPASLSLSQEEKVTITCKASQSVSFAGTGLMHWYQQKPGQAPKLLIYRASNLEAGVPSRFSGSGSGTDFSFTISSLEPEDVAVYYCQQSREYPWTFGQGTKLEIK
# notes: also called mAb1 WT; ID No. 8
# B2: caninized anti-IL31 antibody 34D03, canine IgGB (65), N434H (antibody)
# heavy: B1 heavy with N440H
# VL: B1 VL
# notes: also called mAb1 N434H; ID No. 31
# B3: caninized anti-NGF antibody mAb2 of Tables 1-3, canine IgGB (65), wild-type (antibody, part only; not given: Anti-NGF heavy and light variable domains, part only)
# heavy, part: ASTTAPSVFPLAPSCGSTSGSTVALACLVSGYFPEPVTVSWNSGSLTSGVHTFPSVLQSSGLYSLSSMVTVPSSRWPSETFTCNVAHPASKTKVDKPVPKRENGRVPRPPDCPKCPAPEMLGGPSVFIFPPKPKDTLLIARTPEVTCVVVDLDPEDPEVQISWFVDGKQMQTAKTQPREEQFNGTYRVVSVLPIGHQDWLKGKQFTCKVNNKALPSPIERTISKARGQAHQPSVYVLPPSREELSKNTVSLTCLIKDFFPPDIDVEWQSNGQQEPESKYRTTPPQLDEDGSYFLYSKLSVDKSRWQRGDTFICAVMHEALHNHYTQESLSHSPGK
# B4: caninized anti-NGF antibody mAb2 of Tables 1-3, canine IgGB (65), N434H (antibody, part only; not given: Anti-NGF heavy and light variable domains, part only)
# heavy, part: B3 heavy, part with N322H
# B5: anti-TGFβ antibody ZTS-4155, canine IgGB (65), wild-type (antibody)
# heavy: EVQLVQSGAEVKKPGASVKVSCKTSGYTFITYWMNWVRQAPGAGLDWMGQIFPASGSTNYNEMFEGRVTLTADTSTSTAYMELSSLRAGDIAVYYCARGDGNYALDAMDYWGQGTLVTASTTAPSVFPLAPSCGSTSGSTVALACLVSGYFPEPVTVSWNSGSLTSGVHTFPSVLQSSGLYSLSSMVTVPSSRWPSETFTCNVAHPASKTKVDKPVPKRENGRVPRPPDCPKCPAPEMLGGPSVFIFPPKPKDTLLIARTPEVTCVVVDLDPEDPEVQISWFVDGKQMQTAKTQPREEQFNGTYRVVSVLPIGHQDWLKGKQFTCKVNNKALPSPIERTISKARGQAHQPSVYVLPPSREELSKNTVSLTCLIKDFFPPDIDVEWQSNGQQEPESKYRTTPPQLDEDGSYFLYSKLSVDKSRWQRGDTFICAVMHEALHNHYTQESLSHSPGK
# VL: DIVMTQTPPSLSVSPRETASISCRASESVDSYGNSFMHWYLQKPGQSPQLLIYLASNLESGVSDRFSGSGSGTDFTLRISRVEANDTGVYYCQQNNEDPLTFGQ
# notes: built here as variable domain plus IgGB constant domain; also called mAb3 WT
# B6: anti-TGFβ antibody ZTS-4155, canine IgGB (65), N434M (antibody)
# chain 1: EVQLVQSGAEVKKPGASVKVSCKTSGYTFITYWMNWVRQAPGAGLDWMGQIFPASGSTNYNEMFEGRVTLTADTSTSTAYMELSSLRAGDIAVYYCARGDGNYALDAMDYWGQGTLVTVSSASTTAPSVFPLAPSCGSTSGSTVALACLVSGYFPEPVTVSWNSGSLTSGVHTFPSVLQSSGLYSLSSMVTVPSSRWPSETFTCNVAHPASKTKVDKPVPKRENGRVPRPPDCPKCPAPEMLGGPSVFIFPPKPKDTLLIARTPEVTCVVVDLDPEDPEVQISWFVDGKQMQTAKTQPREEQFNGTYRVVSVLPIGHQDWLKGKQFTCKVNNKALPSPIERTISKARGQAHQPSVYVLPPSREELSKNTVSLTCLIKDFFPPDIDVEWQSNGQQEPESKYRTTPPQLDEDGSYFLYSKLSVDKSRWQRGDTFICAVMHEALHMHYTQESLSHSPGK
# chain 2: DIVMTQTPPSLSVSPRETASISCRASESVDSYGNSFMHWYLQKPGQSPQLLIYLASNLESGVSDRFSGSGSGTDFTLRISRVEANDTGVYYCQQNNEDPLTFGQGTKLEIKRNDAQPAVYLFQPSPDQLHTGSASVVCLLNSFYPKDINVKWKVDGVIQDTGIQESVTEQDKDSTYSLSSTLTMSSTEYLSHELYSCEITHKSLPSTLIKSFQRSEC
# B7: anti-TGFβ antibody ZTS-4155, canine IgGB (65), N434R (antibody)
# chain 1: B6 chain 1 with M443R
# chain 2: B6 chain 2
# B8: anti-TGFβ antibody ZTS-4155, canine IgGB (65), N434T (antibody)
# chain 1: B6 chain 1 with M443T
# chain 2: B6 chain 2
# B9: anti-TGFβ antibody ZTS-4155, canine IgGB (65), N434Q (antibody)
# chain 1: B6 chain 1 with M443Q
# chain 2: B6 chain 2
# B10: anti-TGFβ antibody ZTS-4155, canine IgGB (65), N434V (antibody)
# chain 1: B6 chain 1 with M443V
# chain 2: B6 chain 2
# B11: anti-TGFβ antibody ZTS-4155, canine IgGB (65), N434W (antibody)
# chain 1: B6 chain 1 with M443W
# chain 2: B6 chain 2
# B12: anti-TGFβ antibody ZTS-4155, canine IgGB (65), N434Y (antibody)
# chain 1: B6 chain 1 with M443Y
# chain 2: B6 chain 2
# B13: anti-TGFβ antibody ZTS-4155, canine IgGB (65), N434H (antibody)
# heavy: B5 heavy with N440H
# VL: B5 VL
# notes: See m9; also called mAb3 N434H
# B14: anti-TGFβ antibody ZTS-4155, canine IgGB (65), N434C (antibody)
# chain 1: B6 chain 1 with M443C
# chain 2: B6 chain 2
# Target: IL-31 (target protein of mAb1)
# Assay: cell-based or functional assay
row,IC50 (cell based potency assay) [nM],Binder
1,1.1,B1
2,0.99,B2

# Target: NGF (target protein of mAb2)
# Assay: cell-based or functional assay
row,IC50 (cell based potency assay) [nM],Binder
1,23.7,B3
2,20.9,B4

# Target: TGFβ (target protein of mAb3)
# Assay: cell-based or functional assay
row,IC50 (cell based potency assay) [µg/mL],Binder
1,0.13,B5

# Target: canine FcRn complex (FcRn-α subunit and β-microglobulin) (canine)
# Assay: SPR (Biacore), FcRn amine-coupled on CM5, IgG as analyte, pH 6, 15 C
row,Kd [nM],Binder
1,57.2,B3
2,7.3,B4

# Target: canine FcRn complex (FcRn-α subunit and β-microglobulin) (canine)
# Assay: SPR (Biacore), FcRn amine-coupled on CM5, IgG as analyte, pH 7.2, 15 C
row,Kd [nM],Binder
1,1300,B4

# Target: T1, canine FcRn complex (FcRn-α subunit and β-microglobulin) (canine, UniProt A0A8I3PFR8 25-347, biotin labeled through BirA enzymatic reaction in Example 5)
# T1 sequence (A0A8I3PFR8 entry or part of it, one chain of several): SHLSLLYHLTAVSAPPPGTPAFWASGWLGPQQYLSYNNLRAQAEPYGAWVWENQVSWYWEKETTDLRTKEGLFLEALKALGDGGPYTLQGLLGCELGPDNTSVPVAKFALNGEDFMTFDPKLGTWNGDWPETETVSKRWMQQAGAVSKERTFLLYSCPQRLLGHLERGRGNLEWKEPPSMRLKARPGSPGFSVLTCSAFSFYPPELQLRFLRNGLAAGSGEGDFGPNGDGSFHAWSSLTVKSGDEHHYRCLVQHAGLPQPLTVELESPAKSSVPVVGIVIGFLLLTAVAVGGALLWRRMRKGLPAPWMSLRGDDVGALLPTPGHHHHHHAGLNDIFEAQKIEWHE
# Assay: SPR (Biacore), FcRn amine-coupled on CM5, IgG as analyte, pH 6, 15 C
row,Kd [nM],Binder
1,18.8,B6
2,2.7,B7
3,16.6,B8
4,11.8,B9
5,13.6,B10
6,2.11,B11
7,1.56,B12
8,15 to 24.4,B1
9,0.7 to 1.3,B2
10,523,B5
11,4.8,B13

# Target: T1, canine FcRn complex (FcRn-α subunit and …)
# Assay: SPR (Biacore), FcRn amine-coupled on CM5, IgG as analyte, pH 7.2, 15 C
row,Kd [nM],Binder
1,11,B6
2,285,B7
3,406,B8
4,270,B14
5,50.2,B9
6,6.19,B10
7,162,B11
8,38.6,B12
9,5000,B2
10,38,B13
